Results published in publication PMC9599101 (Biosensors, 2022).

Columns and labels:
[1] = target: T1, recombinant SEB produced by BEVS (staphylococcal enterotoxin B, 6x His-tagged) (Staphylococcus aureus., UniProt P01552); test: BLI; settings: both partners purified
T1 construct: not shown: His6, C-terminal, kept

[2] = target: T1, recombinant SEB produced by BEVS …; test: ELISA; settings: both partners purified
[3] = target: natural SEB secreted from S. aureus strain SA2 (Staphylococcus aureus SA2 (bovine …, UniProt P01552, strain)); test: ELISA; settings: one partner purified
[4] = target: natural SEB secreted from S. aureus strain CCARM 3089 (Staphylococcus aureus CCARM 3089, UniProt P01552, strain); test: ELISA; settings: one partner purified

B1: anti-SEB monoclonal antibody 2-7A (antibody, V domains shown)
VH: EVLLVESGGGLVQPGGSLRLSCATSGFTFTDYYMSWVRQPPGKALEWLGFIRNKANGYTTKYSASVKGRFTISRDNSQSILYLQMNTLRAEDSATYYCAKDNWEAYFDYWGQGTTLTVSS
VL: DVVMTQTPLSLPVSLGDQASISCRSSQSIVHSNGNTYLEWYLQKPGQSPKLLIYKVSNRFSGVPDRFSGSGSGTDFTLKISRVEAEDLGVYYCFQGSHVPWTFGGGTKLELK
notes: also called 2-7A mAb
Which Kd [1] does the source give for B1 here?
Its Kd is 0.55 nM.

And the koff [1]?
Its koff is 7.02e-05 s⁻¹.

And the kon [1]?
Its kon is 128000 M⁻¹ s⁻¹.

What about the EC50 [2] of the same binder?
Its EC50 is 13.5 nM.

B2: anti-SEB monoclonal antibody 4-7A (antibody, V domains shown)
VH: QVQMQQSGAELVRPGASVKLSCKASGYTFTNNWMNWVKQRPGQGLQWIGMIDPSDSETHYNQMFKDKASLTVDKSSSSAYMVLSSLTSEDSAVYYCARRALSYYGSNPTLFDYWGQGTTLTVSS
VL: DIVMSQSPSSLAVSVGEKVTMSCKSSQSLLYSSNQKNYLAWYQQKPGQSPKLLIYWASTWESGVPDRFTGSGSGTNFTLTINSVKTEDLAVYYCQQYSGYPYTFGGGTKLELK
notes: also called 4-7A mAb
B2 was tested. Which Kd [1] did it give?
The Kd was 1.55 nM.

What about the koff [1] of the same binder?
Its koff is 0.000226 s⁻¹.

And the kon [1]?
The kon was 146000 M⁻¹ s⁻¹.

And the EC50 [2]?
Its EC50 is 14.5 nM.

B3: anti-SEB monoclonal antibody 11-7E (antibody, V domains shown)
VH: QVQLKESGPELVRPGVSVKISCKGSGYTFTDYAMHWVKQSHAKSLEWIGIISTYSGNTNYNQKFKAKATMTVDKSSSTAYMELARLTSEDSAIYYCAREGYYGSSRSFDVWGAGTTLTVSS
VL: QIVLTQSPALMSASPGEKVTMTCSASSSVSYMYWYQQKPRSSPKPWIYLTSNLASGVPARFSGSGSGTSYSLTISSMEAEDAATYYCQQWSSNPLTFGAGTKLELK
notes: also called 11-7E mAb
B3 was tested. Which Kd [1] did it give?
Its Kd is 0.331 nM.

What about the koff [1] of the same binder?
The koff was 3.27e-05 s⁻¹.

And the kon [1]?
The kon was 99000 M⁻¹ s⁻¹.

And the EC50 [2]?
The EC50 was 16.7 nM.

Does B3 bind [3]?
Result: binds

Does B3 bind [4]?
Result: binds
